Read-outs that look alike come from different tables or passages of the source.
How the values were obtained:
[1] = target: T1, human LILRB2 expressed on cells (293T-LILRB2, CHO-K1-LILRB2) (human, UniProt Q8N423 22-597); assay: flow cytometry on 293T-LILRB2 cells, serial dilution, APC anti-human IgG; fit table under the graph
T1 construct: whole, on cells; the cell line is named under assay; also called HEK293T-LILRB2
Source text: (§1) The cells were washed and then subject to flow cytometry to measure levels of fluorescent signals.

[2] = target: T1, human LILRB2 expressed on cells …; assay: flow cytometry, blockade of His-tagged HLA-G tetramer binding to 293T-LILRB2 cells; fit table under the graph
Procedure: Serial diluted humanized LILRB2 antibodies were then added to the mixture and incubated at room temperature for another 45 minutes. The binding of HLA-G/LILRB2 was detected afterwards using a secondary PE-labeled anti-His tag antibody via flow cytometry.

[3] = target: T1, human LILRB2 expressed on cells …; assay: flow cytometry on 293T-LILRB2 cells, serial dilution, APC anti-human IgG; fit table under the graph; remark: listed apart in the source
Source text: as §1

LILRB3-His = target: T2, LILRB3-His; assay: ELISA on recombinant His-tagged protein, OD450
T2 construct: also called His-tagged LILRB3; recombinant LILRB3 protein

[4] = target: LILRB2 antigen of the ELISA of Table 5 (format not specified) (UniProt Q8N423 22-460, limits assumed); assay: ELISA, antibody titration
[5] = target: T3, human LILRB3 expressed on 293T cells (human, UniProt O75022 24-631); assay: cell ELISA on fixed 293T transfectants, OD490
T3 construct: whole, on cells
Procedure: The cells were then immobilized with glutaraldehyde in the presence of 5% defatted milk at room temperature for 2 hours. An anti-LILRB2 antibody (2 μg/ml) was added to each well and incubated at room temperature for 2 hours. An HRP-labelled goat anti-mouse secondary antibody was then added into each well and incubated at room temperature for one hour. An HRP substrate, o-phenylenediamine dihydrochloride (OPD) was then added to each well. The plate was incubated at room temperature for 15 min to allow color development and OD₄₉₀ values were determined.

[6] = target: T1, human LILRB2 expressed on cells …; assay: flow cytometry on 293T-LILRB2 cells, serial dilution, APC anti-human IgG; fit table under the graph; remark: listed apart in the source
Source text: as §1

T1 sequence (Q8N423 22-597): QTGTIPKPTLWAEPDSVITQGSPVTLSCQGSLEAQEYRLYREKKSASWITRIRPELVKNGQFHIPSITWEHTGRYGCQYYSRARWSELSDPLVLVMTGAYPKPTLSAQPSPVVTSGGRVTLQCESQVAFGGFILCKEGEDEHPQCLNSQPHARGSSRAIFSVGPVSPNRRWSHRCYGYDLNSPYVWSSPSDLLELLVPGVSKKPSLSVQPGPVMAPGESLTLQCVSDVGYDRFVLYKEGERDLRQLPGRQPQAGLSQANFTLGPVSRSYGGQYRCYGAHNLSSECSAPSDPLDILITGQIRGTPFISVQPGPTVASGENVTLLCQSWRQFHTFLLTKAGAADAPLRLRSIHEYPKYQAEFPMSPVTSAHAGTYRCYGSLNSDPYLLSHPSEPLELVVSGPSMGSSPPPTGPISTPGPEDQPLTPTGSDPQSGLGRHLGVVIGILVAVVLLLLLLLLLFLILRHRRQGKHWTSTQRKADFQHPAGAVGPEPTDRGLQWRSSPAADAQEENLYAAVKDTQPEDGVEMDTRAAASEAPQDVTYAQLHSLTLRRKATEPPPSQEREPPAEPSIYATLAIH
LILRB2 antigen of the ELISA of Table 5 (format not specified), sequence (Q8N423 22-460 limits assumed): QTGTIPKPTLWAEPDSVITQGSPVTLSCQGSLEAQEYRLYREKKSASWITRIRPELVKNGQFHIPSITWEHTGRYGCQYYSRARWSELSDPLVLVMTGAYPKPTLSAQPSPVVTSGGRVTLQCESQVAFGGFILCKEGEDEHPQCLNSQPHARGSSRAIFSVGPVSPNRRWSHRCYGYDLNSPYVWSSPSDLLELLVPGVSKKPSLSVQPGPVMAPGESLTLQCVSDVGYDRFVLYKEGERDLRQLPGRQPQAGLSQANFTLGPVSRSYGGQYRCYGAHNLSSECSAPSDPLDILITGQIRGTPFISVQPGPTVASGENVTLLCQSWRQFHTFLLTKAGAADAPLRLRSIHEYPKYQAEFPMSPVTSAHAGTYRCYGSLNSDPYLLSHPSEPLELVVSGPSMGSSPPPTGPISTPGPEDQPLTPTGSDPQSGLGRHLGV

| Binder | IC50 [2] | Span [2] | Bmax [3] | Kd [3] | further results |
| --- | --- | --- | --- | --- | --- |
| Antibody h#2C1 (antibody, V domains shown, Humanized variant of 11B12) VH: EVQLVESGGGLVQPGGSLRLSCAVSGYSITSGYYWNWVRQAPGKGLEWVAYISYDGNNNYNPSLKNRFTISRDTSKNTFYLQMNSLRAEDTAVYYCAREESTMITTAWFAYWGQGTLVTVSS VL: DIQMTQSPSSLSASVGDRVTITCRASENIYSNLAWYQQKPGKAPKLLIYGATNLASGVPSRFSGSGSGTDYTLTISSLQPEDFATYYCQHFWDTPYTFGQGTKVEIK | 0.56 nM | 6960 RFU | – | – | Bmax [1]: 684000 RFU; Kd [1]: 0.394 nM |
| Antibody h#2D1 (antibody, V domains shown, Humanized variant of 11B12) VH: EVQLVESGGGLVQPGGSLRLSCAVSGYSITSGYYWNWVRQAPGKGLEWVAYISYDGNNNYNPSLKNRFTISRDTSKNTVYLQMNSLRAEDTAVYYCVREESTMITTAWFAYWGQGTLVTVSS VL: DIQMTQSPSSLSASVGDRVTITCRASENIYSNLAWYQQKPGKAPKLLIYGATNLASGVPSRFSGSGSGTDYTLTISSLQPEDFATYYCQHFWDTPYTFGQGTKVEIK | 0.613 nM | 6830 RFU | 565000 RFU | 0.412 nM | – |
| h#2G3 (antibody, V domains shown, also called Antibody h#2G3) VH: EVQLVESGGGLVQPGGSLRLSCAVSGYSITSGYYWNWIRQAPGKGLEWVAYISYDGNNNYNPSLKNRFTISRDTSKNTVYLQMNSLRAEDTAVYYCAREESTMITTAWFAYWGQGTLVTVSS VL: DIQLTQSPSSLSASVGDRVTITCRASENIYSNLAWYQQKPGKAPKLLIYGATNLASGVPSRFSGSGSGTDYTLTISSLQPEDFATYYCQHFWDTPYTFGQGTKVEIK | – | – | – | – | Bmax [1]: 683000 RFU; Kd [1]: 0.536 nM |
| Antibody h#2G6 (antibody, V domains shown, Humanized variant of 11B12) VH: EVQLVESGGGLVQPGGSLRLSCAVSGYSITSGYYWNWVRQAPGKGLEWVAYISYDGNNNYNPSLKNRFTISRDASKNTFYLQMNSLRAEDTAVYYCAREESTMITTAWFAYWGQGTLVTVSS VL: DIQMTQSPSSLSASVGDRVTITCRASENIYSNLAWYQQKPGKAPKLLIYGATNLASGVPSRFSGSGSGTDYTLTISSLQPEDFATYYCQHFWDTPYTFGQGTKVEIK | 0.391 nM | 7660 RFU | 582000 RFU | 0.292 nM | – |
| Antibody h#2D4 (antibody, V domains shown, Humanized variant of 11B12) VH: EVQLVESGGGLVQPGGSLRLSCAVSGYSITSGYYWNWVRQAPGKGLEWVAYISYDGNNNYNPSLKNRFTISRDTSKNTFYLQMNSLRAEDTAVYYCVREESTMITTAWFAYWGQGTLVTVSS VL: DIQMTQSPSSLSASVGDRVTITCRASENIYSNLAWYQQKPGKAPKLLIYGATNLASGVPSRFSGSGSGTDYTLTISSLQPEDFATYYCQHFWDTPYTFGQGTKVEIK | 0.429 nM | 7190 RFU | 563000 RFU | 0.386 nM | – |
| Antibody 4A9 (antibody, V domains shown, Mouse hybridoma mAb purified from ascites) VH: EIQLQQSGPELVKPGASVKVSCKASGSSFTDYNMYWVKQIHGKSLDWIGYIDPYNGRTTYNQKFKGKATLTVDKSSSTAFMHLNSLTSEDSAVYYCAGGDYFDYWGHGTSLTVSS VL: EIQMTQTTSSLSASLGDRVTISCSASQGISNYLNWFQQKPDGTVKLLIYYTSTLHSGVPSRFSGSGSGTDFSLTISNLDPEDFATYYCQQYSNLPYTFGGGTKLEIK | – | – | – | – | binding result (LILRB3-His): no binding; Kd [4]: 0.216 nM; binding result [5]: no binding (tested: 2 µg/ml) |
| chimeric 11B12 (antibody, V domains shown) VH: DVQLQESGPGLVKPSQSLSLTCSVTGYSITSGYYWNWIRQFPGNKLEWMGYISYDGNNNYNPSLKNRISITRDTSKNQFFLKLNSVTTEDTATYYCAREESTMITTAWFAYWGQGTLVTVSA VL: DIQMTQSPASLSVSVGETVTITCRASENIYSNLAWYQQKQGKSPQLLVYGATNLADGVPSRFSGSGSGTQYSLKINSLQSEDFGSYFCQHFWDTPYTFGGGTKLEIK | – | – | – | – | Bmax [6]: 582000 RFU; Kd [6]: 0.171 nM |
